Assay results reported in paper PMC13544220, “Glycemic and bodyweight effects of GIPR coding variation reflect differences in surface expression and intrinsic functional impairment” (Science Advances, 2026).

Tests used:
[1] = system: wild-type and variant SNAP-GIPR; assay: Surface SNAP-GIPR expression (SNAP-tag labelling) in AD293 cells; format: cell-based, human; conditions: for AD293 Surface: Fig S3E, mean; for Surface SNAP-GIPR expression: sheet Fig 1C;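 as to all read-outs here: scaled to the experimental average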
Summary of the method: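 Read-out: whole-cell fluorescence of surface-only SNAP label (Alexa Fluor 647, 500 nM, 10 min, RT), wide-field 20X, several FOVs per well. Flat-field corrected, phase-contrast masked, nontransfected-well signal subtracted; normalized to experiment mean or wild-type.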

[2] = system: wild-type and variant SNAP-GIPR in Gipr-/- mouse islets; assay: Surface SNAP-GIPR expression in pancreatic islets; format: cell-based, human; conditions: Fig 6B
[3] = system: wild-type and variant SNAP-GIPR in Gipr-/- mouse islets; assay: Insulin secretion from Gipr-/- mouse islets transduced with GIPR adenoviruses; format: cell-based; conditions: Fig 6D, Gipr-/- mouse islets
[4] = system: wild-type and variant SNAP-GIPR in wild-type mouse islets; assay: Insulin secretion from wild-type mouse islets transduced with GIPR adenoviruses; format: cell-based; conditions: Fig 6F
Summary of the method: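 Groups of 8–10 isolated islets were exposed to agonist or vehicle; secreted insulin was measured in supernatants and content in sonicated lysates. Secretion was expressed as % of total (secreted plus content), then normalized to vehicle and given as fold change.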

[5] = system: wild-type and variant SNAP-GIPR in Gipr-/- mouse islets; assay: Glucagon secretion from Gipr-/- mouse islets transduced with GIPR adenoviruses; format: cell-based; conditions: Fig S6C, Gipr-/- mouse islets

B1: E288G (protein)
chain: RAETGSKGQTAGELYQRWERYRRECQETLAAAEPPSGLACNGSFDMYVCWDYAAPNATARASCPWYLPWHHHVAAGFVLRQCGSDGQWGLWRDHTQCENPEKNEAFLDQRLILERLQVMYTVGYSLSLATLLLALLILSLFRRLHCTRNYIHINLFTSFMLRAAAILSRDRLLPRPGPYLGDQALALWNQALAACRTAQIVTQYCVGANYTWLLVEGVYLHSLLVLVGGSEEGHFRYYLLLGWGAPALFVIPWVIVRYLYENTQCWGRNEVKAIWWIIRTPILMTILINFLIFIRILGILLSKLRTRQMRCRDYRLRLARSTLTLVPLLGVHEVVFAPVTEEQARGALRFAKLGFEIFLSSFQGFLVSVLYCFINKEVQSEIRRGWHHCRLRRSLGEEQRQLPERAFRALPSGSGPGEVPTSRGLSSGTLPGPGNEASRELESYC
- AD293 Surface ([1]; column repeated, paired with cAMP 100 nM): 0.1748
- AD293 Surface ([1]; paired with cAMP 100 pM): 0.1748
- Surface SNAP-GIPR expression ([1]; replicate 1): 0.1869
- Surface SNAP-GIPR expression ([1]; replicate 2): 0.267
- Surface SNAP-GIPR expression ([1]; replicate 3): 0.08361
- Surface SNAP-GIPR expression ([1]; replicate 4): 0.1519
- Surface SNAP-GIPR expression ([1]; replicate 5): 0.1987
- Surface SNAP-GIPR expression ([1]; replicate 6): 0.07439
- Surface SNAP-GIPR expression ([1]; replicate 7): 0.7465
- Surface SNAP-GIPR expression ([1]; replicate 8): 0.3261
- Surface SNAP-GIPR expression ([1]; replicate 9): 0.1689
- Surface SNAP-GIPR expression ([1]; replicate 10): 0.2273
- Surface SNAP-GIPR expression ([1]; replicate 11): 0.2845
- Surface SNAP-GIPR expression ([1]; replicate 12): 0.2606
- Surface SNAP-GIPR expression ([1]; replicate 13): 0.07673
- Surface SNAP-GIPR expression ([1]; replicate 14): 0.0817
- Surface SNAP-GIPR expression ([1]; replicate 15): 0.1221
- Surface SNAP-GIPR expression ([1]; replicate 16): 0.1487
- Surface SNAP-GIPR expression ([1]; replicate 17): 0.2042
- Surface SNAP-GIPR expression ([1]; replicate 18): 0.1937
- Surface SNAP-GIPR expression ([1]; replicate 19): 0.1495
- Surface SNAP-GIPR expression ([1]; replicate 20): 0.1825
- Surface SNAP-GIPR expression ([1]; replicate 21): 0.2069
- Surface SNAP-GIPR expression ([1]; replicate 22): 0.1788
- Surface SNAP-GIPR expression ([1]; replicate 23): 0.167
- Surface SNAP-GIPR expression ([1]; replicate 24): 0.1096
- Surface SNAP-GIPR expression ([1]; replicate 25): 0.2053
- Surface SNAP-GIPR expression ([1]; replicate 26): 0.1578
- Surface SNAP-GIPR expression ([1]; replicate 27): 0.0991
- Surface SNAP-GIPR expression ([1]; replicate 28): 0.1213
- Surface SNAP-GIPR expression ([1]; replicate 29): 0.1325
- Surface SNAP-GIPR expression ([1]; replicate 30): 0.1696
- Surface SNAP-GIPR expression ([1]; replicate 31): 0.159
- Surface SNAP-GIPR expression ([1]; replicate 32): 0.181
- Surface SNAP-GIPR expression ([1]; replicate 33): 0.1299
- Surface SNAP-GIPR expression ([1]; replicate 34): 0.1533
- Surface SNAP-GIPR expression ([1]; replicate 35): 0.1527
- Surface SNAP-GIPR expression ([1]; replicate 36): 0.05767
- Surface SNAP-GIPR expression ([1]; replicate 37): 0.09894
- Surface SNAP-GIPR expression ([1]; replicate 38): 0.1179
- Surface SNAP-GIPR expression ([1]; replicate 39): 0.124
- Surface SNAP-GIPR expression ([1]; replicate 40): 0.1489
- Surface SNAP-GIPR expression ([1]; replicate 41): 0.1584
- Surface SNAP-GIPR expression in pancreatic islets ([2]; replicate 1): 0.1066
- Surface SNAP-GIPR expression in pancreatic islets ([2]; replicate 2): 0.6008
- Surface SNAP-GIPR expression in pancreatic islets ([2]; replicate 3): 0.01404
- Surface SNAP-GIPR expression in pancreatic islets ([2]; replicate 4): -0.2745
- Surface SNAP-GIPR expression in pancreatic islets ([2]; replicate 5): -0.1674
- Insulin secretion, ratio G11 + GIP / G11 ([3]; replicate 1): 2.545
- Insulin secretion, ratio G11 + GIP / G11 ([3]; replicate 2): 0.8478
- Insulin secretion, ratio G11 + GIP / G11 ([3]; replicate 3): 2.186
- Insulin secretion, ratio G11 + GIP / G11 ([3]; replicate 4): 1.083
- Insulin secretion, ratio G11 + GIP / G11 ([4]; replicate 1): 0.8131
- Insulin secretion, ratio G11 + GIP / G11 ([4]; replicate 2): 1.885
- Insulin secretion, ratio G11 + GIP / G11 ([4]; replicate 3): 1.6101
- Insulin secretion, ratio G11 + GIP / G11 ([4]; replicate 4): 1.127
- Insulin secretion, ratio G11 + GIP / G11 ([4]; replicate 5): 2.303
- Glucagon secretion, ratio G0.5 + GIP / G0.5 ([5]; replicate 1): 2.014
- Glucagon secretion, ratio G0.5 + GIP / G0.5 ([5]; replicate 2): 1.482
- Glucagon secretion, ratio G0.5 + GIP / G0.5 ([5]; replicate 3): 1.8204
- Glucagon secretion, ratio G0.5 + GIP / G0.5 ([5]; replicate 4): 1.525
